Source: US20030203415A1 (published 2003)
Values joined by “and” are separate entries in the source; they are usually repeats but may differ in a detail not shown here. Equal entries are not always repeated. Ends that are not written are not given here. fluorescein = fluorescein label attached through NHS-fluorescein to the ε-amino side group of the C-terminal lysine

Experiments:
[1] = biological target: T1, H6NA3 (UniProt P06731 35-144; P06731 499-590, limits assumed); test: fluorescence anisotropy, direct binding
T1 construct: domain: N domain;domain: A3 domain; recombinant truncated target
T1 sequence: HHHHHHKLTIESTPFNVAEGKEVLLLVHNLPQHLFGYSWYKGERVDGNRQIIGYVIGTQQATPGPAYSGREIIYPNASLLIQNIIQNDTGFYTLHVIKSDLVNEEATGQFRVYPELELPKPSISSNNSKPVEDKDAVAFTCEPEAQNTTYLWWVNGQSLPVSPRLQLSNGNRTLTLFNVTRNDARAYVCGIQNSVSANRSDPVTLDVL
Procedure: (§1) Dissociation constants were determined using fluorescence anisotropy, through direct binding measurements to either NA-3 or CEA in PBS with 0.01% TWEEN 20. In direct binding assays, the concentration of the fluorescein-labeled peptide is held constant and the concentration of NA3 is varied. In the competition experiment, the concentration of the fluorescein-labeled peptide and the NA3 target are held constant and the concentration of competitor peptide (from Isolate 12-H12) is varied. The change in anisotropy is fit to the appropriate equation via nonlinear regression to obtain the apparent Kd. […] Replicate analyses were run for certain binders and are reported to confirm accuracy and precision of measurements. KD standard error values are calculated from the nonlinear regression (SIGMAPLOT, SPSS Science, Chicago, Ill.).

[2] = biological target: T2, carcinoembryonic antigen (CEA) (UniProt P06731 35-685, limits assumed); test: fluorescence anisotropy, direct binding
T2 sequence (looked up): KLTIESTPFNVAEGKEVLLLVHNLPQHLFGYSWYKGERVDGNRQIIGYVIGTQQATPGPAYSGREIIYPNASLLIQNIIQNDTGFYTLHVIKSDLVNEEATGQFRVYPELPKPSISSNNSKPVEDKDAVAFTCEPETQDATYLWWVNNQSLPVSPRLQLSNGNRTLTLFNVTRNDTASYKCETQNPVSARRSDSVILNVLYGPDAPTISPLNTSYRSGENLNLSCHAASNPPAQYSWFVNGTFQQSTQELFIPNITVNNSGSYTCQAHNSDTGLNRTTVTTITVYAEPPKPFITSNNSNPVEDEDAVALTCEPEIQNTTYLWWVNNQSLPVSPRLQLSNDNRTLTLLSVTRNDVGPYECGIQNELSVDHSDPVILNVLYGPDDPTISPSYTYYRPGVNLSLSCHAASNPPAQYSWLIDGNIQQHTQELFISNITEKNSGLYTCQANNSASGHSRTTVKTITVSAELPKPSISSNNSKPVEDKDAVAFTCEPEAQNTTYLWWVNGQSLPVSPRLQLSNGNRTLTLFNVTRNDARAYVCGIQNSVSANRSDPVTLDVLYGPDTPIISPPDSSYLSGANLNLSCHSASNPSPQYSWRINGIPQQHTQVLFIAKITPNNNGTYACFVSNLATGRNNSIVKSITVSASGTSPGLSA
Procedure: as §1

[3] = biological target: T1, H6NA3; test: fluorescence anisotropy, competition with peptide from Isolate 12-H12
Procedure: as §1

[4] = biological target: T1, H6NA3; test: fluorescence anisotropy, direct binding; remark: listed apart in the source
[5] = biological target: T1, H6NA3; test: fluorescence anisotropy, competition with peptide from Isolate 12-H12 (replicate)
Procedure: as §1

[6] = biological target: T3, human serum albumin (HSA) (human, UniProt P02768 25-609); test: phage ELISA on immobilized HSA
T3 construct: control target

[7] = biological target: T1, H6NA3; test: fluorescence anisotropy, competition with unlabeled cT84.66
Procedure: (§2) Dissociation constants were determined using fluorescence anisotropy, through direct binding measurements and competition experiments. In direct binding assays, the concentration of the fluorescein-labeled peptide is held constant and the concentration of H6NA3 is varied. In the competition experiment, the concentration of the fluorescein-labeled peptide and the H6NA3 target are held constant and the concentration of a competitor (cT84.66, unlabeled) is varied. The change in anisotropy is fit to the appropriate equation via nonlinear regression to obtain the apparent Kd.

[8] = biological target: T1, H6NA3; test: fluorescence anisotropy, direct binding; remark: listed apart in the source
Procedure: as §2

[9] = biological target: T1, H6NA3; test: fluorescence anisotropy, direct binding; remark: listed apart in the source
Procedure: as §2
Dissociation constants were determined using fluorescence anisotropy, through direct binding measurements (see Example 6).

[10] = biological target: T1, H6NA3; test: fluorescence anisotropy, direct binding; remark: listed apart in the source
[11] = biological target: T1, H6NA3; test: fluorescence anisotropy, direct binding (replicate)
Procedure: as §1

[12] = biological target: T1, H6NA3; test: fluorescence anisotropy
Procedure: as §2

T3 sequence (P02768 25-609 limits assumed): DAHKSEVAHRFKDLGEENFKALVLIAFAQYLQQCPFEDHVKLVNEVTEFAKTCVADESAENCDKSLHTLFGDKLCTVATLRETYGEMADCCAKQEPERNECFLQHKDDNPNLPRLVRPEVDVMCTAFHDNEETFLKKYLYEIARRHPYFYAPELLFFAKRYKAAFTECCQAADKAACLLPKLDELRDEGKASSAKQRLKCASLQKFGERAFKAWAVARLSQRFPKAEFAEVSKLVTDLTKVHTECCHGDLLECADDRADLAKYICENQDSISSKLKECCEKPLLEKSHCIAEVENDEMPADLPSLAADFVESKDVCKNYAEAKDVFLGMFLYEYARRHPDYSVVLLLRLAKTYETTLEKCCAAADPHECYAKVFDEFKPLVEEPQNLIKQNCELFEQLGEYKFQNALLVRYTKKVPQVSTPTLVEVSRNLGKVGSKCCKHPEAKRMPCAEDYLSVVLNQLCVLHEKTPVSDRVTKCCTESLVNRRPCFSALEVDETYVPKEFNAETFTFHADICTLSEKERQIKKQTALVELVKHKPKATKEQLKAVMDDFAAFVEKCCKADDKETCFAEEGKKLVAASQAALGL

B1: 315A-17-B12 synthetic peptide (peptide)
peptide: DWVCEWLKPQWYCNSLAPGGEGGGSK(fluorescein)-NH2
modifications: not fully specified (bridges); cysteine pairing not given here; also: fluorescein on C-terminal Lys ε-amino in labelled aliquots
notes: synthetic
Kd [1]: 1800 nM
binding result [2]: no binding
Kd [3]: 650 nM

B2: Hybrid H12/A12 (peptide, part only; not given: C-terminal lysine extension, part only)
peptide, part: DWVCEYFKNQWFCDTL
modifications: not fully specified (C-terminus, bridges); cysteine pairing not given here; also: fluorescein on ε-amino of C-terminal lysine, no C-terminal K in given chain
Kd [4]: 2800 nM

B3: 315A-17-G08 synthetic peptide (peptide)
peptide: DWVCEFIKSQWFCNVLAPGGEGGGSK(fluorescein)-NH2
modifications: not fully specified (bridges); cysteine pairing not given here; also: fluorescein on C-terminal Lys ε-amino in labelled aliquots
notes: synthetic
Kd [1]: 270 nM
Kd [2]: 1600 nM
Kd [3]: 160 nM
Kd [5]: 160 nM

NWFCEMIGRQWGCVPS [TN10/9-F11]
binding result [6]: no binding

NWRCKLFPRYPYCSSW (also called TN10/9 Isolate G01) [G01]
binding result [6]: no binding

B4: P-B09 (peptide)
peptide: SDWVCELTTGGYVCQPLAPGGEGGGSK(fluorescein)-NH2
modifications: not fully specified (bridges); printed as SDWVCELTTGGYVCQPLAPGGEGGGSK-CONH2; cysteine pairing not given here; also: fluorescein on C-terminal Lys ε-amino in labelled aliquots
notes: synthetic 27-mer
Kd [7]: 1000 nM
Kd [8]: 6000 nM

B5: 304A-12-H12 synthetic peptide (peptide)
peptide: DWVCEYFKNQWFCNVLAPGGEGGGSK-NH2
modifications: not fully specified (residue 26, bridges); cysteine pairing not given here; also: fluorescein only on labelled aliquots
notes: synthetic; also called DX306
Kd [1]: 300 nM
Kd [2]: 3700 nM
Kd [3]: 340 nM
Kd [9]: 240 nM
Kd [5]: 240 nM
fold increase in affinity compared to the Isolate G08 peptide [10]: 8 fold
Kd [11]: 220 nM

B6: P-A07 (peptide)
peptide: SDWVCENKKDQWTCNLLAPGGEGGGSK(fluorescein)-NH2
modifications: not fully specified (bridges); printed as SDWVCENKKDQWTCNLLAPGGEGGGSK-CONH2; cysteine pairing not given here; also: fluorescein on C-terminal Lys ε-amino in labelled aliquots
notes: synthetic 27-mer
Kd [7]: 3600 nM
Kd [8]: 5900 nM

B7: 315A-17-B01 synthetic peptide (peptide)
peptide: DWVCEWLKMQWACNILAPGGEGGGSK(fluorescein)-NH2
modifications: not fully specified (bridges); cysteine pairing not given here; also: fluorescein on C-terminal Lys ε-amino in labelled aliquots
notes: synthetic
Kd [1]: 950 nM
Kd [3]: 900 nM
Kd [5]: 1200 nM

DWVCENKKDQWTCNLL (not fully specified (bridges); cysteine pairing not given here, also called TN10/9 Isolate A07) [AB-A07]
binding result [6]: no binding

DWVCNFDQGLAHCFPS (not fully specified (bridges); cysteine pairing not given here) [TN10/9-D04]
binding result [6]: no binding

B8: P-E01 (peptide)
peptide: SNWDCMFGAEGWACSPWAPGGEGGGSK(fluorescein)-NH2
modifications: not fully specified (bridges); printed as SNWDCMFGAEGWACSPWAPGGEGGGSK-CONH2; cysteine pairing not given here; also: fluorescein on C-terminal Lys ε-amino in labelled aliquots
notes: synthetic 27-mer
Kd [7]: 5300 nM
Kd [12]: 7000 nM
Kd [8]: 6900 nM

B9: 304A-14-A12 synthetic peptide (peptide, part only; not given: C-terminal lysine extension, part only)
peptide, part: DWVCNLFKNQWFCDTL
modifications: not fully specified (C-terminus, bridges); cysteine pairing not given here; also: fluorescein on ε-amino of C-terminal lysine, no C-terminal K in given chain
Kd [4]: 640 nM

NWVCNLFKNQWFCNSY (also called TN10/9 Isolate G08) [FX-G08]
binding result [6]: no binding

NWDCMFGAEGWACSPW (not fully specified (bridges); cysteine pairing not given here) [TN10/9-E01]
binding result [6]: no binding

B10: 315A-18-E02 synthetic peptide (peptide)
peptide: DWVCEFFKDQWFCNILAPGGEGGGSK(fluorescein)-NH2
modifications: not fully specified (bridges); cysteine pairing not given here; also: fluorescein on C-terminal Lys ε-amino in labelled aliquots
notes: synthetic
Kd [1]: 380 nM
Kd [2]: 2600 nM
Kd [3]: 310 nM
Kd [5]: 290 nM and 220 nM and 140 nM

RYCEFFPWSLHCGRP (also called TN10/9 Isolate B10) [B10]
binding result [6]: no binding

B11: P-G08 (peptide)
peptide: SNWVCNLFKNQWFCNSYAPGGEGGGSK(fluorescein)-NH2
modifications: not fully specified (bridges); printed as SNWVCNLFKNQWFCNSYAPGGEGGGSK-CONH2; cysteine pairing not given here; also: fluorescein on C-terminal Lys ε-amino in labelled aliquots
notes: synthetic 27-mer; also called Isolate G08 peptide
Kd [8]: 1900 nM

B12: 315A-18-E01 synthetic peptide (peptide)
peptide: DWVCEIVKNQWICNPLAPGGEGGGSK(fluorescein)-NH2
modifications: not fully specified (bridges); cysteine pairing not given here; also: fluorescein on C-terminal Lys ε-amino in labelled aliquots
notes: synthetic
Kd [1]: 870 nM
Kd [3]: 230 nM
Kd [5]: 490 nM and 170 nM
